# Laboratory results taken from patent publication US9540424B2, “Serum albumin binding molecules” (BRISTOL-MYERS SQUIBB COMPANY, priority 2010, dated 2017).
# B1: SABA1-FGF21v1: SABA1-FGF21 fusion, SEQ ID NO: 132; 293 aa; DNA SEQ ID NO: 184 (protein)
# chain: MGVSDVPRDLEVVAATPTSLLISWHSYYEQNSYYRITYGETGGNSPVQEFTVPYSQTTATISGLKPGVDYTITVYAVYGSKYYYPISINYRTEIEKPSQGSGSGSGSGSGSGSPIPDSSPLLQFGGQVRQRYLYTDDAQQTEAHLEIREDGTVGGAADQSPESLLQLKALKPGVIQILGVKTSRFLCQRPDGALYGSLHFDPEACSFRELLLEDGYNVYQSEAHGLPLHLPGNKSPHRDPAPRGPARFLPLPGLPPALPEPPGILAPQPPDVGSSDPLSMVGPSQGRSPSYAS
# B2: His-tagged FGF21: non-fused His-tagged FGF21 (“FGFv1”; SEQ ID NO: 125) used as a comparator (protein)
# chain: MHHHHHHPIPDSSPLLQFGGQVRQRYLYTDDAQQTEAHLEIREDGTVGGAADQSPESLLQLKALKPGVIQILGVKTSRFLCQRPDGALYGSLHFDPEACSFRELLLEDGYNVYQSEAHGLPLHLPGNKSPHRDPAPRGPARFLPLPGLPPALPEPPGILAPQPPDVGSSDPLSMVGPSQGRSPSYAS
# modifications: His6 tag
# Tests used:
# [1] = Plasma exposure in the ob/ob mouse efficacy study; format: in vivo, ob/ob mice; settings: His6-tagged FGF21 0.3 mg/kg, SABA1-FGF21v1 1 mg/kg, without HSA; for Plasma Concentration: 3 hours post dose; for Plasma Concentration (ng/ml): […] hours post dose
# Description: (§1) Thus, monitoring plasma glucose levels in diabetic ob/ob mice represents one way that the functional activity of the FGF21-SABA fusion proteins can be assessed. Beginning at 8 weeks of age, diabetic ob/ob mice received daily subcutaneous doses for 7 days (n=8 per group). All protocols were approved by the BMS ACUC committee. Fed glucose levels were examined both 24 hr and 3 hr post-dose on day 7 beginning at 8:00 AM. His-tagged FGF21 and SABA1-FGF21v1 were formulated in PBS and dosed at 0.3 mg/kg, and 1.0 mg/kg. respectively.
# (§2) To evaluate the efficacy of SABA1-FGF21v1 bound to human albumin, the fusion protein (1 mg/kg) was incubated with a molar excess of human serum albumin (6 mg/kg) and the mixture was injected in an additional group (q.d. s.c. for 7 days). Human serum albumin (6 mg/kg) was used as an additional control group.
# The exposure of SABA1-FGF21v1 is greater in the presence of human serum albumin than in its absence.
# (§3) Various in vivo studies were conducted in mice and monkeys to characterize the pharmacokinetics of His-tagged FGF21 and SABA1-FGF21v1. An ELISA-based ligand binding assay was used to measure the His-tagged FGF21 and SABA1-FGF21v1 in all mouse and monkey plasma samples.
# [2] = system: diabetic ob/ob mice; assay: HbA1c in diabetic ob/ob mice after 14 days of SABA1-FGF21v1 premixed with HSA; format: in vivo, mouse; settings: for plasma levels: […] hours after the last dose
# Description: HbA1c was measured in plasma samples 24 hours after the last dose (see FIG. 19).
# SABA1-FGF21v1 plasma levels at the 0.01, 0.1 and 1 mg/kg doses were 3.85, 2.28 and 28.73 ng/ml respectively, 24 hours after the last dose.
# [3] = system: diabetic ob/ob mice; assay: Plasma glucose lowering in diabetic ob/ob mice, 7 days daily s.c.; format: in vivo, mouse; settings: day 7; for lowering of plasma glucose compared to the PBS vehicle control: SABA1-FGF21v1 1.0 mg/kg, His-tagged FGF21 0.3 mg/kg s.c. daily; for magnitude of glucose lowering: […] hours post dose
# Description: as §1, §2
# [4] = Pharmacokinetics of His-tagged FGF21 and SABA-FGF21 fusions in monkeys; format: in vivo, cynomolgus monkeys; settings: for CL (total body plasma clearance, CLTp) / T½ (terminal half-life) / Vdss (steady-state volume of distribution, Vss) / absolute subcutaneous bioavailability / apparent subcutaneous terminal half-life (T1/2): monkeys; for CL (total body plasma clearance, CLTp) / T½ (terminal half-life) / Vdss (steady-state volume of distribution, Vss): intravenous, His-tagged FGF21 0.5 mg/kg, SABA1-FGF21v1 0.08 mg/kg
# Description: as §3
# (§4) Following subcutaneous administration, His-tagged FGF21 was well absorbed.
# (§5) Following subcutaneous administration, SABA1-FGF21v1 was well absorbed.
# [5] = Pharmacokinetics of His-tagged FGF21 and SABA1-FGF21v1 in mice; format: in vivo, CD-1 mice; ob/ob mice; settings: for steady-state volume of distribution (Vss) / terminal half-life (T1/2) / total body plasma clearance (CLTp): CD-1 mice, intravenous, His-tagged FGF21 1 mg/kg, SABA1-FGF21v1 1.6 mg/kg
# Description: as §3, §4, §5
# SABA1-FGF21v1 was also administered to ob/ob mice at 1 mg/kg subcutaneously after pre-mix with human serum albumin (6 mg/kg).
# [6] = system: parental HEK cells, which do not express β-klotho; assay: pERK 1/2 specificity assay in parental HEK cells; format: cell-based, human
# Excerpt: FGF1 was used as a positive control in those experiments.
# [7] = system: HEK cells stably expressing human β-klotho; assay: HEK β-Klotho pERK 1/2 assay; format: cell-based; settings: for Efficacy (%): % of His6-tagged FGF21 maximal activity; for activity in HEK β-klotho stable cells (specificity experiment): same dilutions as in parental HEK cells
# Description: FGF21 induces ERK phosphorylation in the presence of β-klotho. Accordingly, the present HEK-β-klotho assay system was constructed to examine the functional activity of the FGF21-SABA fusions in vitro. Specifically, in vitro activity, potency (EC50) and efficacy (as a percentage of maximal activity observed from an FGF21 molecule that is not fused to a SABA), were determined for the SABA1-FGF21v1 (SEQ ID NO: 132) fusion protein, as measured in the HEK β-Klotho expressing stable cell pERK 1/2 assay using the non-fused His-tagged FGF21 (“FGFv1”; SEQ ID NO: 125) as a comparator.
# A HEK cell line stably expressing human β-klotho was constructed. The human β-klotho construct encoded the full length protein under the control of a CMV promoter with a C-terminal FLAG tag. HEK 293 cells were transfected with the linearized cDNA using Lipofectamine 2000 (Invitrogen catalog #11668027) following the manufactures protocol using standard techniques. Positive clones were isolated after 14 days of selection in 600 ug/ml (Invitrogen catalog #10131) of geneticin in Dulbecco's Modified Eagle Medium with high glucose containing L-Glutamine, Hepes (Invitrogen catalog #12430054) and 10% FBS (HyClone catalog # SH30071). Positive stable clones were further characterized by Western Blot analysis and p-ERK activation by AlphaScreen (Perkin Elmer catalog # TGRES50K) analysis.
# HEK cells stably expressing human β-klotho were plated at 20,000 cells/well in 96 well tissue culture plates in DMEM high glucose media (Gibco) containing 10% (v/v) FBS (Hyclone) and 600 μg/ml G418 (Gibco). The following day, the media was removed and replaced with DMEM high glucose media without serum and the cells were incubated overnight. The morning of the third day the serum free media was removed and the cells were incubated for a total of seven minutes with dilutions of the proteins made in PBS containing 3% (w/v) fatty acid free human serum albumin. Dilutions were tested in triplicate, one well on each of three plates. At the end of the seven minute incubation, the protein dilutions were removed and 100 μl of 1x AlphaScreen lysis buffer (Perkin-Elmer) was added per well and allowed to incubate with shaking for approximately 10-15 minutes. The plates containing the cellular lysates were frozen at −80° C. for at least 30 minutes or until ready to assay. Four μl from each well of thawed cell lysate was analyzed for pERK 1/2 using the Surefire AlphaScreen pERK 1/2 kit (Perkin Elmer) using 384 well white Proxiplates (Perkin Elmer) following the manufacturer's directions. Plates were incubated at room temperature for two hours in the dark and then read on an Envision 2103 Multiplate reader (Perkin Elmer). Data were analyzed using Graph Pad Prism software using a non-linear regression analysis.
# [8] = cyno, SC, 0.08 mg/kg, N = 3, mean ± SD
molecule,measurement,setting,value
B1,Plasma Concentration,[1],1370 ng/mL
same,Plasma Concentration (ng/ml),[1],<LLOQ
same,plasma levels,[2]; 0.01 mg/kg dose,3.85 ng/mL
same,decrease in HbA1c compared to baseline,"[2]; 0.01 mg/kg with HSA 6 mg/kg, s.c. q.d. 14 days",no decrease
same,plasma levels,[2]; 0.1 mg/kg dose,2.28 ng/mL
same,decrease in HbA1c compared to baseline,"[2]; 0.1 mg/kg with HSA 6 mg/kg, s.c. q.d. 14 days, not statistically significant",0.39%
same,plasma levels,[2]; 1 mg/kg dose,28.73 ng/mL
same,decrease in HbA1c with respect to baseline,"[2]; 1 mg/kg with HSA 6 mg/kg, s.c. q.d. 14 days",0.9%
same,vehicle subtracted decrease in HbA1c,"[2]; 1 mg/kg with HSA 6 mg/kg, s.c. q.d. 14 days, statistically significant",0.94%
same,lowering of plasma glucose compared to the HSA control,"[3]; 3 hours post dose, 1 mg/kg with human serum albumin 6 mg/kg, q.d. s.c.",46%
same,lowering of plasma glucose compared to the PBS vehicle control,[3]; 3 hours post dose,29%
same,magnitude of glucose lowering,"[3]; 1.0 mg/kg s.c. daily, without HSA",7%
same,magnitude of glucose lowering,[3]; 1 mg/kg with HSA 6 mg/kg,41%
same,AUCtot,"[4]; cyno, IV, 0.08 mg/kg, N = 2",3.621 µM·h
same,CLTp,"[4]; cyno, IV, 0.08 mg/kg, N = 2",0.0118 mL/min/kg
same,T½,"[4]; cyno, IV, 0.08 mg/kg, N = 2",97 h
same,Vss,"[4]; cyno, IV, 0.08 mg/kg, N = 2",0.076 L/kg
same,F (%),"[4]; cyno, SC, 0.08 mg/kg",68%
same,AUCtot,[4]; [8],2.454 ± 0.779 µM·h
same,Cmax,[4]; [8],22.4 ± 10.8 nM
same,Tmax,[4]; [8],13 ± 9 h
same,"CL (total body plasma clearance, CLTp)",[4],0.012 mL/min/kg
same,T½ (terminal half-life),[4],97 h
same,"Vdss (steady-state volume of distribution, Vss)",[4],0.08 L/kg
same,absolute subcutaneous bioavailability,[4],68%
same,apparent subcutaneous terminal half-life (T1/2),[4],67 h
same,steady-state volume of distribution (Vss),[5],0.12 L/kg
same,terminal half-life (T1/2),[5],1.9 h
same,total body plasma clearance (CLTp),[5],2.9 mL/min/kg
same,apparent subcutaneous terminal half-life (T1/2),"[5]; mice, subcutaneous",1.9 h
same,apparent subcutaneous terminal half-life (T1/2),"[5]; ob/ob mice, 1 mg/kg subcutaneously after pre-mix with human serum albumin (6 mg/kg)",9 h
same,stimulation of pERK 1/2 levels in parental HEK cells,[6],neither His-tagged FGF21 nor SABA1-FGF21v1 stimulated pERK 1/2 levels
same,right shift of potency (EC50) relative to the His-tagged FGF21,[7],approximately 15 fold
same,Efficacy (%),"[7]; mean ± std. dev., N ≧4",62%
same,Efficacy (%),"[7]; mean ± std. dev., N ≧4, listed as SABAl-FGF21v1",62 ± 9%
same,activity in HEK β-klotho stable cells (specificity experiment),[7],showed activity
B2,Plasma Concentration,[1],99 ng/mL
same,Plasma Concentration (ng/ml),[1],<LLOQ
same,lowering of plasma glucose compared to the PBS vehicle control,[3]; 3 hours post dose,comparable
same,"CL (total body plasma clearance, CLTp)",[4],6.4 mL/min/kg
same,T½ (terminal half-life),[4],1.9 h
same,"Vdss (steady-state volume of distribution, Vss)",[4],1 L/kg
same,absolute subcutaneous bioavailability,[4],65%
same,apparent subcutaneous terminal half-life (T1/2),[4],4.3 h
same,steady-state volume of distribution (Vss),[5],0.27 L/kg
same,terminal half-life (T1/2),[5],0.5 h
same,total body plasma clearance (CLTp),[5],12 mL/min/kg
same,absolute subcutaneous bioavailability,"[5]; mice, subcutaneous",~100%
same,apparent subcutaneous terminal half-life (T1/2),"[5]; mice, subcutaneous",0.6 h
same,stimulation of pERK 1/2 levels in parental HEK cells,[6],neither His-tagged FGF21 nor SABA1-FGF21v1 stimulated pERK 1/2 levels
same,Efficacy (%),"[7]; mean ± std. dev., N ≧4",100%
same,EC50,"[7]; pERK 1/2, in PBS with 3% human serum albumin, mean ± std. dev., N ≧4",7 ± 4 nM
same,activity in HEK β-klotho stable cells (specificity experiment),[7],showed activity
